Test [1] has as its target FITC-labeled AC413(6–25) with Y25P mutation. The test can be described thus: fluorescence anisotropy, FITC-peptide probe binding. The note with it: anisotropy at the highest receptor concentration shown, log [RAMP1 ECD-CTR ECD fusion] M = -6; parent: est. 0.19; read off a plot.
Test [2] deals with FITC-labeled salmon calcitonin (sCT) fragment(22–32). The description is as above. The note with it: anisotropy at the highest receptor concentration shown for this mutant, read off a plot.
Test [3] concerns the target amylin receptor 1 extracellular domain, wild type (hRAMP1.24–111-(GSA)3-hCTR.34–141-H6) (human) (UniProt O60894). The test can be described thus: competition binding assay; non-labeled sCT(22–32) as competitor on amylin receptor 1 ECDs (Figure S3); probe and conditions not shown.
For test [4], the target named is amylin receptor 1 ECD ECD (Homo sapiens) (UniProt P30988). The note with it: cited from earlier work.
Setting [5] is: log [RAMP1 ECD-CTR ECD fusion] M = -5.5, parent: est. 0.19.

Sequence of salmon calcitonin fragment sCT(22-32) 22-32 (P01263 whole entry, looked up, the tested form may be a part): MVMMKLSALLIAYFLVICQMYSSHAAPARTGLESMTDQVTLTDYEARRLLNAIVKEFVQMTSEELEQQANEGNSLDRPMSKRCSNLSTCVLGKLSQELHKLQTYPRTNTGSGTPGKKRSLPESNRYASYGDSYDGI

For “amylin receptor 1 extracellular domain, wild type (hRAMP1.24–111-(GSA)3-hCTR.34–141-H6) (from UniProt O60894) D101A”, the response in test [1] turned out to be 0.041; in test [2] (log [RAMP1 ECD-CTR ECD fusion] M = -6, parent: est. 0.18), 0.035.

“amylin receptor 1 extracellular domain, wild type (hRAMP1.24–111-(GSA)3-hCTR.34–141-H6) (from UniProt O60894) N135A”: the response in test [1] came out at 0.1; in test [2] (setting [5]), 0.081.

On to “amylin receptor 1 extracellular domain, wild type (hRAMP1.24–111-(GSA)3-hCTR.34–141-H6) (from UniProt O60894) D101E”, for which the response in test [1] is 0.046; in test [2] (setting [5]), 0.035.

Consider “non-labeled salmon calcitonin (sCT) (22–32) fragment (peptide)”, for which the Ki in test [3] is 891 nM.

On to “amylin receptor 1 extracellular domain, wild type (hRAMP1.24–111-(GSA)3-hCTR.34–141-H6) (from UniProt O60894) N135D”, for which the figures for the response in test [1] and in test [2] (setting [5]) were 0.056 and 0.052, respectively.

With “salmon calcitonin fragment sCT(22-32) 22-32 (from UniProt P01263)”, in test [4], the Ki was 2500 nM.

For orientation: Ki means the equilibrium dissociation constant of an inhibitor or competing ligand from its target.

The values are drawn from PMC12292835, “Amylin Receptor 1 Mutagenesis Revealed a Potential Role of Calcitonin Serine 29 in Receptor Interaction” (Biomedicines, 2025).
